Results as given in publication PMC5029660, “The DEK oncogene activates VEGF expression and promotes tumor angiogenesis and growth in HIF-1α-dependent and -independent manners”.

T1: His-DEK (UniProt P35659 1-375)
T1 sequence: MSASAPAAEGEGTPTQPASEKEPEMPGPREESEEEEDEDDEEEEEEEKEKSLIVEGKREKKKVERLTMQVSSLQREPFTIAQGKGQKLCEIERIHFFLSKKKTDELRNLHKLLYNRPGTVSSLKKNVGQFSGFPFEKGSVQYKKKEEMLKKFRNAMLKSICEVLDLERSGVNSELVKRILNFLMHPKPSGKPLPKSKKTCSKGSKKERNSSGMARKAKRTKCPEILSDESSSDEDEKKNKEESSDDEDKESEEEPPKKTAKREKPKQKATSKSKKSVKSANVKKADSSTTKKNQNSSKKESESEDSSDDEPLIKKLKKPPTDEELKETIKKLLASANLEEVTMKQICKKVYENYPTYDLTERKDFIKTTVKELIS

B1: DRE1 (dsDNA)
DNA 1: GGGTTGAGGGCGTTGGAGCGGGGAGAAGGCCAGGGGT
DNA 2: ACCCCTGGCCTTCTCCCCGCTCCAACGCCCTCAACCC
B2: DRE1-M (dsDNA)
DNA 1: GGGTTGAGGGCGGGTTCTATTTGAGAAGGCCAGGGGT
DNA 2: ACCCCTGGCCTTCTCAAATAGAACCCGCCCTCAACCC
B3: DRE2 (dsDNA)
DNA 1: TGGAAAGGGAGGGTTGGGGTGGGTGGGAGCCAGCCCT
DNA 2: AGGGCTGGCTCCCACCCACCCCAACCCTCCCTTTCCA
B4: HRE (dsDNA)
DNA 1: ACAGTGCATACGTGGGCTCCAACAGGTCCTCTTCCCTCCC
DNA 2: GGGAGGGAAGAGGACCTGTTGGAGCCCACGTATGCACTGT

Legend:
[1] = target: T1, His-DEK; experiment: EMSA; abolished by 100-fold excess unlabeled DRE1; LightShift Chemiluminescent EMSA Kit (Pierce), per manufacturer; buffer, salt, pH and temperature not stated; details: protein: recombinant; tags: His; label: biotin; blunt
[2] = target: T1, His-DEK; experiment: EMSA; LightShift Chemiluminescent EMSA Kit (Pierce), per manufacturer; buffer, salt, pH and temperature not stated; details: protein: recombinant; tags: His; label: biotin; blunt

Binder	binding result [1]	binding result [2]
B1	binds	
B2		no binding
B3		no binding
B4		no binding
